From patent EP4755913A1 (Abiotech Pharmaceutical Co., Ltd, dated 2026) come the findings set out here.

The target in test [1] is T1, Human FcγRIIA (CD32a) (ACRO, Cat No. CDA-H5221) (human, UniProt P12318 36-218, limits assumed).
T1 construct: Used in solution against antibody on ProA sensors
T1 sequence (looked up): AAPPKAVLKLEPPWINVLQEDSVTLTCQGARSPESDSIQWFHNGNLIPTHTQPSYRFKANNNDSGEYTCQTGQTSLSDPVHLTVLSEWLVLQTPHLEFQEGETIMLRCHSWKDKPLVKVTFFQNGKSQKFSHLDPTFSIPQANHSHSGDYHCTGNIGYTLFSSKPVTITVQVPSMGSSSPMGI
Nature of the test: BLI (Octet R8), antibody on ProA sensor, CD32a in solution.

The target of test [2] is T2, Recombinant human EGFR-HIS (Acrobiosystems, EGR-H5222) (human, UniProt P00533 25-645).
T2 construct: Bought reagent; not shown: His tag
Nature of the test: ELISA, EGFR-HIS coated, anti-human IgG Fc detection.

Test [3] addresses T3, Human FcRn (ACRO, Cat No. FCM-H8286) (human, UniProt P55899 24-297; P61769 21-119, biotinylated (Bio-FcRn, site not stated)).
T3 construct: immobilised on SA (streptavidin) sensors; also called Bio-FcRn
Nature of the test: BLI (Octet R8), biotinylated FcRn on SA sensor, antibody in solution.

The target in test [4] is T4, Human c-Met membrane protein on cells (human, UniProt P08581 25-932).
T4 construct: the same id is used for the endogenous c-Met of A549 and MKN45 cells in the functional rows; also called CHOK1-HGFR; CHO-K1-c-Met
In words: flow cytometry on CHO-K1 cells overexpressing human c-Met.

For test [5], the target named is T5, Recombinant human c-Met-HIS (Acrobiosystems, C-MET-H5227) (human, UniProt P08581 25-932).
T5 construct: Bought reagent; also called HGFR-his; HGFR-HIS; not shown: His tag
In words: BLI (Octet R8), antibody captured on AHC2 sensor, c-Met-HIS in solution.

The target in test [6] is Human C1q (Abcam, Cat No. AB282858) (human, UniProt P02745 23-245; P02746 28-253; P02747 29-245, limits assumed). In words: BLI (Octet R8), antibody on FAB2G sensor, C1q in solution.
Test [7] addresses T6, HGFR-hfc (Acrobiosystems, Cat No. MET-H5256) (human, UniProt P08581 25-932).
T6 construct: Bought reagent; also called human HGFR protein; receptor c-Met; not shown: human Fc (hfc)
In words: blocking ELISA, HGFR-hfc coated, HGF-HIS as competitor ligand, anti-His detection.

In test [8] the target is T5, Recombinant human c-Met-HIS …. Nature of the test: ELISA, C-MET-HIS coated, anti-human IgG Fc detection.
The target in test [9] is T2, Recombinant human EGFR-HIS …. Nature of the test: BLI (Octet R8), antibody captured on AHC2 sensor, EGFR-His in solution.
Test [10] addresses T5, Recombinant human c-Met-HIS …. In words: BLI (Octet R8), affinity for c-Met-his compared with affinity for EGFR-HIS.
Test [11] has as its target T7, Human FcγRIIIA (CD16a-V176) (ACRO, Cat No. CD8-H52H4) (human, UniProt P08637 17-208).
T7 construct: Immobilised on HIS1K (anti-His) sensors, so His-tagged; tag not described
Nature of the test: BLI (Octet R8), receptor on HIS1K sensor, antibody in solution.

The target in test [12] is T8, Human FcγRI (CD64) (ACRO, Cat No. FCA-H52H1) (human, UniProt P12314 16-288, limits assumed).
T8 construct: His-tagged (CD64-His), immobilised on HIS1K sensors; tag not described; also called CD64-His
The description is as above.

The target of test [13] is T9, Human FcγRIIB/C (CD32b/c) (ACRO, Cat No. CDB-H5228) (human, UniProt P31994 46-217, limits assumed).
T9 construct: Immobilised on HIS1K (anti-His) sensors, so His-tagged; tag not described
T9 sequence (looked up): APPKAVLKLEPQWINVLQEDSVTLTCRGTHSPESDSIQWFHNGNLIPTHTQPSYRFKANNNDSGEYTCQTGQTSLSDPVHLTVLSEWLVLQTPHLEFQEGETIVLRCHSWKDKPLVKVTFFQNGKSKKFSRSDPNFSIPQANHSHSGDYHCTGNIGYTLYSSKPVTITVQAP
The test is described as above.

Test [14] has as its target T10, Human FcγRIIIB (CD16b) (ACRO, Cat No. CDB-H5227) (human, UniProt O75015 17-200).
T10 construct: Immobilised on HIS1K (anti-His) sensors, so His-tagged; tag not described
The description is as above.

For test [15], the target named is T11, Human FcγRIIIA (CD16a-F176) (ACRO, Cat No. CDA-H5220) (human, UniProt P08637 17-208).
T11 construct: Immobilised on HIS1K (anti-His) sensors, so His-tagged; tag not described
Described as above.

The target in test [16] is T12, Human EGFR membrane protein on cells (human, UniProt P00533 25-645).
T12 construct: the same id is used for the endogenous EGFR of A549 and MKN45 cells in the functional rows; also called CHOK1-EGFR; CHO-K1-EGFR
In words: flow cytometry on CHO-K1 cells overexpressing human EGFR.

The target of test [17] is T4, Human c-Met membrane protein on cells. In words: cell-based or functional assay.
The target in test [18] is T12, Human EGFR membrane protein on cells. In words: cell-based or functional assay.

Some results are limits rather than exact numbers.

B1: Anti-c-Met/EGFR bispecific antibody BT461-DB (bispecific antibody, human IgG1, kappa)
light 1: DIQMTQSPSSLSASVGDRVTITCRSSQNIVHSNGNTYLDWYQQTPGKAPKLLIYKVSNRFSGVPSRFSGSGSGTDFTFTISSLQPEDIATYYCFQYSHVPWTFGQGTKLQITRTVAAPSVFIFPPSDEQLKSGTASVVCLLNNFYPREAKVQWKVDNALQSGNSQESVTEQDSKDSTYSLSSTLTLSKADYEKHKVYACEVTHQGLSSPVTKSFNRGEC
heavy 1: not shown
light 2: DIQMTQSPSSLSASVGDRVTITCSVSSSVSSIYLHWYQQKPGKAPKLLIYSTSNLASGVPSRFSGSGSGTDFTLTISSLQPEDFATYYCQVYSGYPLTFGGGTKVEIKRTVAAPSVFIFPPSDEQLKSGTASVVCLLNNFYPREAKVQWKVDNALQSGNSQESVTEQDSKDSTYSLSSTLTLSKADYEKHKVYACEVTHQGLSSPVTKSFNRGEC
heavy 2: not shown
notes: DuoBody format, assembled in vitro by Fab arm exchange from BT461-DB-EGFR and BT461-DB-c-Met; parents expressed in FUT8 knock-out CHO-K1 cells (no fucose); also called BT461 with Duobody structure
In the case of B1, the Kd turned out to be 1.52 µM in [1]; 0.228 µM in test [3]; 0.000766 µM in [5]; 0.0112 µM in test [6]; 0.0219 µM in test [9]; 0.0265 µM in [11]. Moreover, the Kd in test [12] amounted to 0.00897 µM; in test [13] it was 1.65 µM; in test [14] it was 14.4 µM; in test [15], 0.33 µM. The half-maximal effective concentration (EC50) in [2] is 1.3 mg/L; in [4], 0.266 mg/L; in test [8], 0.00822 mg/L; in test [16] it was 1.73 mg/L. In addition, the koff amounted to 0.000213 s⁻¹ in test [5] and 0.0033 s⁻¹ in test [9]. For the same molecule, the kon in test [5] was determined as 278000 M⁻¹ s⁻¹; in test [9], 151000 M⁻¹ s⁻¹. Moreover, the IC50 in test [7] worked out at 0.456 mg/L. Further, the “fold difference between the affinities of the two arms (c-Met-his against EGFR-HIS)” value in test [10] was > 20 fold. Further, in test [17], the “EC50 of Antibody-Mediated ADCC Killing Curves (ADCC Reporter Bioassay, CHOK1-c-Met target cells)” value was found to be 0.162 mg/L. Also, in test [18], the “EC50 of Antibody-Mediated ADCC Killing Curves (ADCC Reporter Bioassay, CHOK1-EGFR target cells)” value worked out at 0.185 mg/L.
